Measured values reported in the nanobody polyreactivity screen of Harvey et al. (2022).

Experiment: yeast display, Sf9 membrane polyspecificity reagent, FACS + sequencing; frameworks hold sequencing errors
Method in brief: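 After 36–48 hours of galactose induction, yeast (Saccharomyces cerevisiae BJ5465) displaying a synthetic nanobody library were stained at 4 °C for 1 hour with 10% biotinylated, detergent-solubilized Sf9 membrane reagent. Streptavidin microbeads enriched the stained cells before FACS sorting into low and high (top ~1%) gates on anti-HA and streptavidin fluorescence. Each clone's polyreactivity label reflects its gate of origin.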

Row | Sequence | polyreactivity (PSR sort gate)
1 | QVQHVESGGGLVQAVGSLRLSCAASGIIFPRTAMGWYGQAPGKERELVAGISRSGGSTSYADSVKGRFTISRDNAKNTVYLQMNSRKPEDTAVYYCATRGHPFKKSYGSWGQGTQVTVSS | high polyreactivity
2 | QVQHVESGGGLVQAVGSLRLSCSASGITFHYYTMGWYRQAPGKEREFVAAISKSGGRTYYADSVKGRFTISRDKAKNTVYLQMNSLKPEDTAVYYCAGLYYFNGDYWGEGTQVTVSS | high polyreactivity
3 | QVQHVESGGGLVQEGGILRLSCAASGFTYRTYAMGWSRQAPGQESELVADISGSGGSTYYADSVKGRFTISRDNAKNTVYLQMNSQKPEDTAVFYCAADDASWSNLGYEYWGQGTQVTVSS | high polyreactivity
4 | QVQHVESGGGLVQEGGSLRLSCAASARTFPFYAMGWYRQATGKERELVAAITRSDDSPYYADSVKGRFTFSRDNAKNTVYVQMHSLKPEDIAVYYCAADVEGLTVESHVYRVGFDYCGQGTQVTVSS | low polyreactivity
5 | QVQHVESGGRLVQAGGILRLSCAASGRIFQSNAMGWYRQTPGKERELVAGITKRGGSTYYADSVKGRFTISLDYAKNTVYLQMNSLTPEDTAVYYCAKSWSYDPRYGSWGQGTQVTVSS | high polyreactivity
6 | QVQHVESGGVLVQAGGSLRLSCAASGSTFGGYAMGWYRQAPGKERELVASISRRGGSTYYADSVKGRFTLSRDNAKNTFYFHMNSLKPEDTAVYYCNAAFLRQVWDGYNYWGQGSQVTVSS | high polyreactivity
7 | QVQHVESGRCLFQAGGSLRLSCAASGSTFYNNALGWYRQAPGKERELVAVITDSGGRTYYADSVKGRFTISRDNAKNSVKLQMNSLKPEDCAVYYCAADIGYDVYNDYDYWGQGTQVTVSS | low polyreactivity
8 | QVQHVESGRGLVQAGGSLRLSCAASGITFNQYAMGWYRQAPGKERELVAGISYSGGSTYYADSVKGRFTISRDNAKNTVYFQMISLKPEDTAVYYCAKRSPFTLDYWGQGTQVTVSS | high polyreactivity
9 | QVQHVESGRGLVQAGGSLRLSCAASGRIFQYYTMGRYRQAPGKERELVAAISRSGSSTYYADSVKGRFTISRDNAKNTVYLQMNSLKPEDTAVYYCAAVSEYYKGYDYWGQGTQVTVSS | high polyreactivity
10 | QVQHVESGVGLVQAGGSLRLSCAASGSTFVPYAMGWYRQAPGKDRELVAAISSAGSTNYADSVKGRFTISRDNAKNTVYLQMNSLKPEDTAVYYCARDIQDTYEFDYWGQGTQVTVSS | low polyreactivity
11 | QVQHVESGVGLVQAVGSLRLSCAASGLTIDYNAMGWDRQAPVKERELVAAISWSGGSTYYADSLKGRFTISRDNAKNTVYLQMNSLKPEDNAVYYCNALPHIVIGGIICYEYWGQGTQVTVSS | high polyreactivity
12 | QVQHVESRGGIVQAGGSLRLSCAASGFILYFNAMGWYRQAPGKERELVAAITSDGGSTYYADSVKGRFTISRDNAKNTVYLQMNSLKPEDTAVYYCAADASTWYTEEYWGQGTQVTVSS | low polyreactivity
13 | QVQHVESRGGLLQAGGSLRLSCAASGRTLSFYGMGWYRQPPGKERELVAAISSSGSRTYYADSVKGRFTISRDNAKNTVYLQMNSLKPEHTAVYYCNALRIYHHYEYDYWGQGTQVTVSS | high polyreactivity
14 | QVQHVESRGGLVQAGGSLRLSCAASGLILSGYTMGWYRPAPGKERELVAAISRSGGSTYYADSVKGRFTISRDNAKNTVYLQMNSLKPEDTAVYYCAKVPIYRYGVWAMNYWGQGTQVTVSS | high polyreactivity
15 | QVQHVESRGGLVQAGGSLRLSCDASGSTFVTYAMGWYRQAPGKERELVAAISRSGGSTYYADSVKGRFTISRDNAKNTVYLQMNSLKPEDTAVYYCAARDGYGATGHDYWGQGTQVTVSS | low polyreactivity
16 | QVQHVESVGCLVQAGGTLRLSCASSVRTFLWYTMGWYRQAPGKKRELVATITSGGRTNYADSVKGRFTISRDNAKNTVYLQMNSLNPEDTAVYYCARLGAYTGRYDYWGQGTQVTVSS | high polyreactivity
17 | QVQHVESVGGLVQAGGRLRLSSAASGSIFSYNAMGWYRQAPVKERQLVARITRGGDGTYYADSVMVRFTISRDNAKNTVYLQMNSLKPEDTAVYYCAGTPYWYHLRVEGGYWGQGTQVTVSS | low polyreactivity
18 | QVQHVESVGGLVQAGGSLRLSCAASGSTFARYVMGWYRQAPGKEWELVAVISRSGGSTYYADSVKGRFTISRDNAKNTVYLQMNSLKPEDTAVYYCNARSSNYWWYYYWGQGTQVTVSS | high polyreactivity
19 | QVQHVESWGGIVQARGSLRLSCAASGSTFSYNALGWYRQPPGKERELVAALTCSGASTYYAYSVKGRFTISRDKAKNTVYLQLSSMNPDDTAVYYCNAPDGPGPNAYYEFDYWGQGTQVTVSS | low polyreactivity
20 | QVQHVQTLGGLDQAGGSLRLSFSDSGSNFGYYSIVLYRLAPGKERELVAAITGSGGGTYYADSVKGRLTISRDNAKNTVYLQMNSLKPEDTAVYYCAKDRNYRIYWGEYWGHGTQVTVSS | low polyreactivity
21 | QVQIEESGGGLVQAGGSLRLSCAASGFIFRPYAMGWYRQAPGKERELVAAITGGGSTYYADSVKGRFTISRDNAKNTVYLQMISLKPEDTAVYYCNADRRRRSGGFAGWHFQRNDYWGQGTQVTVSS | low polyreactivity

Row | Sequence | polyreactivity (PSR sort gate)
22 | QVQIEESGGGLVQAGGSLRLSCAASGRTFYANVMGWSRQAPGIEWELVAAITYSGGSTYYADSVKGRFTISRDNAQNTVYVLMNCLKQEDTADYYCAADNVYTFYYWGQGTLVTVSS | low polyreactivity
23 | QVQIEESGGGLVQAGGSLRLSCAASGSTFGINAMGWSRQAPGKERELVAAISSRGGSTYYADSVKGRFTISRDNAQNTVYLQMNSLKPADTALYSCNRRGWSRTHQYDYWGQGTQVTVSS | high polyreactivity
24 | QVQIGESGGGLVQAGGSLRLSCAASGRTFGLYAMGWYRQAPGKERELVAAITISGGITHYADSVKGRFTISRDIAKNSVYLQMNSLKPEDTAVYYCAAEPPGFRTSGVGYWGQGTQVTVSS | low polyreactivity
25 | QVQIVDSGGGLVQAGGSLRISCAASGRIFAGYGKGWYRQAPGKERELVAAISSGGSTYYADSVKGRFTISRDNAKNTVYLQMNSLKPEDTAVYYCATDGQSVPDDYYQNVDYDYWGQGTQVTVSS | low polyreactivity
26 | QVQIVDSGGGLVQAGGSLRLSCAASGLIIGPYAMGWYRQAPGKERELVAAITSGTTTYYADSVKGRFTISRDNAKNTVYLQMNSLKPEDTAVYYCAAYWPVNSQPIQIGYLYDYWGQGTQVTVSS | low polyreactivity
27 | QVQIVDSGGGLVQAGGSLRLSCAASGRIIPANAMGWYRQAPGKERELVAAIDYDGGSTYYADSVKGRFTISRDNAKNTVYLQMNSLNPEVTAVYYCAADFYDYEGSYYDYYWGQGTQVTVSS | high polyreactivity
28 | QVQIVDSGGGLVQAGGSLSLSCAASGSTFRGYAMGWYRQAPGKERELVAAITGSGDRTRYADSVKGRFTISRDNAKNTVYLQKNSLKPADTAVNYCAKVWPHWAYYSWGQGTQVTLSS | high polyreactivity
29 | QVQIVESGAGLVHAGGSLRISCAASGRIFWIYAMGWYRQAPGKESELVATITGSGGSTYYADSVKGRFTISRDNAKKTVYLQMNSLKPEVTAVYYCAARYPVSGGYDYWGQGTQVTLSS | low polyreactivity
30 | QVQIVESGAGLVQAGGSLRISCAPSGRTFLYNAMGWYIQAPGKESELVAAIDGGTGSTYYADSVKARFTISRDNAKNTVYLQMIRLNPEDTAGYYCAAETYGVGYPVNYDYWGQGTQVTVSS | low polyreactivity
31 | QVQIVESGGGIVQAGGSLRLSCAASGIIFSGYVMGWYRQAPGKERQLVAAISSGGSKYYADSVKGRFTISRDNAKNTFYLQINSLKPEDTEVYYCAAAGYWTLGYGYWGQGTQVTVSS | low polyreactivity
32 | QVQIVESGGGLDQAGGSLRLSCAASGRTLGYYAMVWYRQAPGIERELVAAISRTGGRTYYADSVKGRFTISLDNAKNTVYLQMNSLKPEDTAVYYCAVVAPDGYDFYYWGQGTQVTVSS | high polyreactivity
33 | QVQIVESGGGLFQAGGILRLSCAASGLTLFRDAMGWYRQAPGKERELVAAIDYGGGTYYADSVKGRFTISRDNAKTTVNLQMNRLKVEDTAVYYCAVEPEYKYYEGDFWGQGTQVTVSS | low polyreactivity
34 | QVQIVESGGGLFQAGGRLPLSCAASGSSFKINDMGWYRHAPGKERELVATITWSTGTTYYADSVKGLFTISRYNAKNTVYLKMNSLKPEYTAVYYCAADYCSYGYVLFDYWGQGTQVTVSS | low polyreactivity
35 | QVQIVESGGGLVQAGGILRLSCAASGITFTSYAMGWYRQAPGKEREFVAAISWSGDRTYYADSVKGRFTISRDNAKNTVYLQMICLKPEETAVYYCNAYIYFSAYDPDYYWGQGTQVTVSS | high polyreactivity
36 | QVQIVESGGGLVQAGGSLRFSCAASGRIFRGYDMGWYRQAPGKEREFVAAISWSGGNTYYADSVKGRFTISRDNAKNTVYLLMNSLNPEDTAVYYCAARVFGSHFYYRTRPYDYWGQGTQVTVSS | high polyreactivity
37 | QVQIVESGGGLVQAGGSLRISCAASGSIFIYYAMGWYRQAPGKDRELVAAISNGGSTNYADSVKGRFTISRDNANNTVYLLMNRLTPEDTSVFYCNKQYWYWSNTLTIRDYWGQGTQVTVSS | low polyreactivity
38 | QVQIVESGGGLVQAGGSLRLICAASGIIFEGYAMGWYRQAPGKERELVAAISQSGGSTRYADSVKGRFTISRDNATNTVYLQMNSLKPEDTAVYYFAKEVWNWGPYYYWGQGTQVTVSS | low polyreactivity
39 | QVQIVESGGGLVQAGGSLRLICAASGRILSANAMGWYRQAPGKERELVAAITYSGDNTYYADYVKGRFTISRDNANNTVYLQMNSLKPEDTAVYYCAREFQVDGGEEDYWGQGTQVTVSS | low polyreactivity
40 | QVQIVESGGGLVQAGGSLRLICAASGSIFFYYAMGWYRQAPGKEWELVAAITFTGGSTYYADSVKGSFTISRDNAKNTVYLQMTSLKPEDTAVYYCAADWYYGFEYEYRGQGTQVTVSS | high polyreactivity
41 | QVQIVESGGGLVQAGGSLRLRCADSGRIFVRYAMGGYIQSPGKDRELVAGITSGSRTNYADSVKGRFTISRDNAKNTVYLQMNSLKPEDTAVYYCAKRYLRYSRLGNYWGQGTQVTVSS | high polyreactivity
